The target of assay [1] is T1, human TACI expressed on 293 cells (phTACI vector) (human, UniProt O14836 1-293).
T1 construct: also called hTACI gene
T1 sequence: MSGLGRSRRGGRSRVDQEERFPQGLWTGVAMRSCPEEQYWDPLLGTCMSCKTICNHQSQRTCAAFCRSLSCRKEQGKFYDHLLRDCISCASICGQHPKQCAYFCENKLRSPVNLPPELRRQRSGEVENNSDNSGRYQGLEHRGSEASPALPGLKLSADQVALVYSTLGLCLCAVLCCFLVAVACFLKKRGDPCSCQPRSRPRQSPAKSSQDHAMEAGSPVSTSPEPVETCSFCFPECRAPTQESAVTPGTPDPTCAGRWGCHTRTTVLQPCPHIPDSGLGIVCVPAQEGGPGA
As to the kind of experiment: FACS on transfected 293 cells, G70/APRIL-Flag then FITC anti-Flag antibody. The method, then:
(§1) FIGS. 14A, 14B and 14C show soluble mouse G70/APRIL binding to 293 cells expressing the BCMA gene. Human 293 cells transfected with the pmBCMA and pcDNA3 vectors were incubated with G70/APRIL-Flag, followed by FITC-conjugated anti-Flag antibody staining for FACS analysis. A. 293 cells transfected with pcDNA3 vector only. B. 293 cells transfected with antisense pmBCMA vector. C. 293 cells transfected with sense pmBCMA vector.
(§2) Human 293 cells transfected with the phTACI and pcDNA3 vectors were incubated with G70/APRIL-Flag, followed by FITC-conjugated anti-Flag antibody staining for FACS analysis.

The target in assay [2] is T2, mouse BCMA expressed on 293 cells (sense pmBCMA vector) (mouse, UniProt O88472 1-185).
T2 construct: also called exogenous BCMA; BCMA gene
T2 sequence: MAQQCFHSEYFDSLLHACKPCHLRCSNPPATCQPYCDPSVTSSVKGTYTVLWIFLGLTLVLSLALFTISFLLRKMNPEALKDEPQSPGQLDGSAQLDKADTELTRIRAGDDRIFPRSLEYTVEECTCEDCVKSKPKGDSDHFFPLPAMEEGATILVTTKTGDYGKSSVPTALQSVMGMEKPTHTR
Described as above. The method, then: as §1, §2

Consider one molecule from patent US6774106 (Amgen, dated 2004).

B1: Soluble murine APRIL-Flag protein (FLAG-tagged soluble mouse APRIL) (ligand)
chain: MDYKDDDDKKHKKKHSVLHLVPVNITSKDSDVTEVMWQPVLRRGRGLEAQGDIVRVWDTGIYLLYSQVLFHDVTFTMGQVVSREGQGRRETLFRCIRSMPSDPDRAYNSCYSAGVFHLHQGDIITVKIPRANAKLSLSPHGTFLGFVKL
notes: also called Flag-APRIL; Flag-mAPRIL
For the molecule B1, the binding result in assay [1] and in assay [2] was “binds” each time.
